Measured values taken from PMC7481934 (Nature, 2020).

T1: StrepII-mGFP-Bre1 (S. cerevisiae, UniProt Q07457 1-700)
T1 sequence (looked up): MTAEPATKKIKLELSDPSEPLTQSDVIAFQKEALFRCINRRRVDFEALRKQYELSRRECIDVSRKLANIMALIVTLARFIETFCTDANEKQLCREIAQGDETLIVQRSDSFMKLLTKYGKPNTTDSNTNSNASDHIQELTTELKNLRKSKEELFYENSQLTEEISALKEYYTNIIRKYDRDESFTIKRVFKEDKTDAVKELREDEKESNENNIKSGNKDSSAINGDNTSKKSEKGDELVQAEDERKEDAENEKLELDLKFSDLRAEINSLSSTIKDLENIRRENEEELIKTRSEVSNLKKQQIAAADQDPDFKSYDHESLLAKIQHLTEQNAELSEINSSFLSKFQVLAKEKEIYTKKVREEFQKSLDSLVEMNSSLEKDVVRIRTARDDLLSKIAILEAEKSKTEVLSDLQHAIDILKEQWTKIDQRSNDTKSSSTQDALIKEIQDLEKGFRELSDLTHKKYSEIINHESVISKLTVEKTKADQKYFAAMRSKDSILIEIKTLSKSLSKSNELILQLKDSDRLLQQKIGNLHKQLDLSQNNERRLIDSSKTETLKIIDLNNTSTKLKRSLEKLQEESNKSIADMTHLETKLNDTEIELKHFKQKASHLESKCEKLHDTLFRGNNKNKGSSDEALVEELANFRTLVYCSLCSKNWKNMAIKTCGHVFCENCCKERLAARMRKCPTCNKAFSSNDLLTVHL

T2: StrepII-Bre1 (S. cerevisiae, UniProt Q07457 1-700)
T2 sequence (looked up): T1 sequence (looked up)

T3: 6His-Lge1-StrepII (S. cerevisiae, UniProt Q02796 1-332)
T3 sequence (looked up): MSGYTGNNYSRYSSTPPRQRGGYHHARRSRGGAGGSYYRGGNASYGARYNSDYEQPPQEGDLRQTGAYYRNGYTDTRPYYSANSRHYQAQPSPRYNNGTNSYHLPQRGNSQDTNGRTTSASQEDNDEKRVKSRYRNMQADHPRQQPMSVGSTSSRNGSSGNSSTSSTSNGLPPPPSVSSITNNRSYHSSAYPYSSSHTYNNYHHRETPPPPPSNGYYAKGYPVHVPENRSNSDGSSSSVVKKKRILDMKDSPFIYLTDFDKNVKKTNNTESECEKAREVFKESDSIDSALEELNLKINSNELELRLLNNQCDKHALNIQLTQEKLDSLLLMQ

B1: GST-Lge1 IDR-StrepII (domain or fragment, S. cerevisiae, UniProt Q02796 1-242, looked up)
chain: MSGYTGNNYSRYSSTPPRQRGGYHHARRSRGGAGGSYYRGGNASYGARYNSDYEQPPQEGDLRQTGAYYRNGYTDTRPYYSANSRHYQAQPSPRYNNGTNSYHLPQRGNSQDTNGRTTSASQEDNDEKRVKSRYRNMQADHPRQQPMSVGSTSSRNGSSGNSSTSSTSNGLPPPPSVSSITNNRSYHSSAYPYSSSHTYNNYHHRETPPPPPSNGYYAKGYPVHVPENRSNSDGSSSSVVKK
B2: Pacific Blue-labelled 6His-TEV-Rad6 (enzyme, S. cerevisiae, UniProt P06104 1-172, looked up)
chain: MSTPARRRLMRDFKRMKEDAPPGVSASPLPDNVMVWNAMIIGPADTPYEDGTFRLLLEFDEEYPNKPPHVKFLSEMFHPNVYANGEICLDILQNRWTPTYDVASILTSIQSLFNDPNPASPANVEAATLFKDHKSQYVKRVKETVEKSWEDDMDDMDDDDDDDDDDDDDEAD
modifications: Pacific Blue C5-Maleimide label
B3: GST-Lge1 CC-StrepII (domain or fragment, S. cerevisiae, UniProt Q02796 243-332, looked up)
chain: KRILDMKDSPFIYLTDFDKNVKKTNNTESECEKAREVFKESDSIDSALEELNLKINSNELELRLLNNQCDKHALNIQLTQEKLDSLLLMQ
B4: StrepII-Bre1 Lge1 Binding Domain (residues 308-632) (domain or fragment, S. cerevisiae, UniProt Q07457 308-632, looked up)
chain: QDPDFKSYDHESLLAKIQHLTEQNAELSEINSSFLSKFQVLAKEKEIYTKKVREEFQKSLDSLVEMNSSLEKDVVRIRTARDDLLSKIAILEAEKSKTEVLSDLQHAIDILKEQWTKIDQRSNDTKSSSTQDALIKEIQDLEKGFRELSDLTHKKYSEIINHESVISKLTVEKTKADQKYFAAMRSKDSILIEIKTLSKSLSKSNELILQLKDSDRLLQQKIGNLHKQLDLSQNNERRLIDSSKTETLKIIDLNNTSTKLKRSLEKLQEESNKSIADMTHLETKLNDTEIELKHFKQKASHLESKCEKLHDTLFRGNNKNKGSSD
B5: StrepII-mGFP-Bre1 LBD (domain or fragment, S. cerevisiae, UniProt Q07457 308-632, looked up)
chain: B4 chain
B6: GST-Lge1-StrepII (natural protein, S. cerevisiae, UniProt Q02796 1-332, looked up)
chain: T3 sequence (looked up)

Legend:
[1] = biological target: the molecule itself; experiment: co-sedimentation
[2] = biological target: T1, StrepII-mGFP-Bre1; experiment: recruitment to reconstituted condensates
[3] = biological target: T2, StrepII-Bre1; experiment: pull-down
[4] = biological target: B6; experiment: pull-down
[5] = biological target: T3, 6His-Lge1-StrepII; experiment: recruitment to reconstituted condensates

Binder: B1
binding result [1]: binds

Binder: B2
binding result [2]: binds

Binder: B3
binding result [3]: binds

Binder: B4
binding result [4]: binds

Binder: B5
binding result [5]: binds

Binder: B6
binding result [3]: binds
